Assay results taken from IntAct's records for PubMed 18930710.

B1: Ras-related protein Rap-2a (Homo sapiens), P10114 (parent)
chain: MREYKVVVLGSGGVGKSALTVQFVTGTFIEKYDPTIEDFYRKEIEVDSSPSVLEILDTAGTEQFASMRDLYIKNGQGFILVYSLVNQQSFQDIKPMRDQIIRVKRYEKVPVILVGNKVDLESEREVSSSEGRALAEEWGCPFMETSAKSKTMVDELFAEIVRQMNYAAQPDKDDPCCSACNIQ

Variants of: B1
Conditions: with mink1_human MINK1, Q8N4C8
mink1_human MINK1, Q8N4C8, sequence (Q8N4C8 whole entry, looked up): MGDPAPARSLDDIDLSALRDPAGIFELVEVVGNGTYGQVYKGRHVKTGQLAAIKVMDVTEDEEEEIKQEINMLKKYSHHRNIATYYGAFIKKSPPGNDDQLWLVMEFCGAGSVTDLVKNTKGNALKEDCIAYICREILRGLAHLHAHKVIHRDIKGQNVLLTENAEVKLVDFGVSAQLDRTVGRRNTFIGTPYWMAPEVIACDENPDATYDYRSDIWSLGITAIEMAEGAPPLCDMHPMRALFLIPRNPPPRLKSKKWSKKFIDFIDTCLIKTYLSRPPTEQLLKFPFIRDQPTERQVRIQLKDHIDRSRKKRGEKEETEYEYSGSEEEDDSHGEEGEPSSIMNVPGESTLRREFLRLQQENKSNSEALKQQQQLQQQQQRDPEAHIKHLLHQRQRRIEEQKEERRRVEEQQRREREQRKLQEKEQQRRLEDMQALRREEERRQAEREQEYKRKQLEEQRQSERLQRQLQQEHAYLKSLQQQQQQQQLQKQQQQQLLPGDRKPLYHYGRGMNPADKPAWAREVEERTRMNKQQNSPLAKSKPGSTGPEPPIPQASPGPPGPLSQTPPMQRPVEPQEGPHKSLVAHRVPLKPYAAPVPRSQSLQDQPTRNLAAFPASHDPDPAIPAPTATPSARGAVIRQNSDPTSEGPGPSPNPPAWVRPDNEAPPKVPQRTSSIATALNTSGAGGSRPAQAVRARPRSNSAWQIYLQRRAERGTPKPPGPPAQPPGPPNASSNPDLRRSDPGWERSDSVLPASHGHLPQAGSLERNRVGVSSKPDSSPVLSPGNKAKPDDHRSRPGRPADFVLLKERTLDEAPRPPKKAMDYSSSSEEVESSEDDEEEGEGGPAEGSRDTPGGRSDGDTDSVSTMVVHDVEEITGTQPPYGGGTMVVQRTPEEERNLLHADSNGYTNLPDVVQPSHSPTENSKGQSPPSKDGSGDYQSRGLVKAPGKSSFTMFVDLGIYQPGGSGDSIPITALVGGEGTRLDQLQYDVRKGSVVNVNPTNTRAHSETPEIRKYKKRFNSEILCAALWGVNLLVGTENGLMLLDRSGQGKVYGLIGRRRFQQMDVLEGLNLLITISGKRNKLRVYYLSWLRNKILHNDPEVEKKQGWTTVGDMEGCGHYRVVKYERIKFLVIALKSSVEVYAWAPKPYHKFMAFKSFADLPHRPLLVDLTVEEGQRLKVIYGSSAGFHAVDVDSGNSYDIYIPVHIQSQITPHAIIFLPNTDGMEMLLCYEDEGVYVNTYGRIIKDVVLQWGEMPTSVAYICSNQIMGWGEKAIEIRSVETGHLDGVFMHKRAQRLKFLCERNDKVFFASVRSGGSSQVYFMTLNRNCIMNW

| effect of a mutation on the interaction | Variant |
| --- | --- |
| disrupting interaction | F39S |
| disrupting interaction | S17N |

Variants of: B1
Conditions: with mink1_mouse Mink1, Q9JM52
mink1_mouse Mink1, Q9JM52, sequence (Q9JM52 whole entry): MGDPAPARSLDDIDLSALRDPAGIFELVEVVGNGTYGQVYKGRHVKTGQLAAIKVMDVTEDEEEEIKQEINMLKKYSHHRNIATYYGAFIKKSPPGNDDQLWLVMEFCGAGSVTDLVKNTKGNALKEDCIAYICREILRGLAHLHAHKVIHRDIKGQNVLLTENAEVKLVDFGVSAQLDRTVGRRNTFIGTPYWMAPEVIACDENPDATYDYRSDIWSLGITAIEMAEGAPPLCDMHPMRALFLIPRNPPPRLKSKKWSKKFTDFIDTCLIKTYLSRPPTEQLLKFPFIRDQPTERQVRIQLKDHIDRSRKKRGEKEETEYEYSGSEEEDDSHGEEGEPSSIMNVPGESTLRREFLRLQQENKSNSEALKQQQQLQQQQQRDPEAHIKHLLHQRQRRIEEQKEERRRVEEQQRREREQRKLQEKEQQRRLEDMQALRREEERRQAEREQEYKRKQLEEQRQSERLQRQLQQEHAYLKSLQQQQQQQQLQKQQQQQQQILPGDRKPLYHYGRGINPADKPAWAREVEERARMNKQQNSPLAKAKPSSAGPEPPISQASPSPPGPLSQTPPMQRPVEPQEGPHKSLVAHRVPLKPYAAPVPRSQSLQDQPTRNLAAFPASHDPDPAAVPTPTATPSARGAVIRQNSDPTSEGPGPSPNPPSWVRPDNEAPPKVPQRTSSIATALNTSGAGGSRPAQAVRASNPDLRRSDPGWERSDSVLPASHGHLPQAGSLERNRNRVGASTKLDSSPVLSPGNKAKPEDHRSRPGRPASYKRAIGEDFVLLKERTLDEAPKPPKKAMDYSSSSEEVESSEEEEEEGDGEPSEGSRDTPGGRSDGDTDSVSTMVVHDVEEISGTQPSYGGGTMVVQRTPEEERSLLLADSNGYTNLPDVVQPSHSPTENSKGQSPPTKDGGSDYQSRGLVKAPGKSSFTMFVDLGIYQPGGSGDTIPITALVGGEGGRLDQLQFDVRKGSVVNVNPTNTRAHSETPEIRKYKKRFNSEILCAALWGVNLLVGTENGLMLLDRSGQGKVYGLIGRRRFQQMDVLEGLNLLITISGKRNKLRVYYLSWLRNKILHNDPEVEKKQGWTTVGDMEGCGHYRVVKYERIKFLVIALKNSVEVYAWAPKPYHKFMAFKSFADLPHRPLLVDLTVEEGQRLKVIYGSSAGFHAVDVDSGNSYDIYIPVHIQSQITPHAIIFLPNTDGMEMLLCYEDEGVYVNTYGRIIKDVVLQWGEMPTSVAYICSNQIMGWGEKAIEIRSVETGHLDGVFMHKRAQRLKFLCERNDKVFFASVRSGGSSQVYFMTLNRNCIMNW

| effect of a mutation on the interaction | Variant |
| --- | --- |
| decreasing interaction | F39S |
